41 sequences from the nanobody polyreactivity screen of Harvey et al. (2022) can be followed below.

The nature of the series: yeast display, Sf9 membrane polyspecificity reagent, FACS + sequencing; frameworks hold sequencing errors. The procedure, abridged:
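A nanobody's polyreactivity label depends on the gate it was sorted from. Yeast display cells were stained with 10% biotinylated, detergent-solubilized Sf9 membrane reagent for 1 hour at 4 °C, enriched on streptavidin microbeads and sorted by FACS. The low and high (top ~1%) gates were set on anti-HA fluorescence for expression and streptavidin fluorescence for reagent binding.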
For the sequence “QVHLVESGGGLVQAGGSLRLSCAASGSLFYYNAMGWYRPAPGKERDLVAAINSNGGSTYYADTVKGRFTISRDNAKNTVYLQMNSLKPEDTAVYSSAAKYYFNWHRQGYDYWGQGTQVTVSS”, the “polyreactivity (PSR sort gate)” value is recorded as “high polyreactivity”.

Consider “QVHLVESGGGLVQAGGSLRLSCAASGSTCYWYTMGWYRKAPGKERELVARISSSGSTNYADSVKGRFTISRDNEKNTVYLLMNILKAEDTAVYYCNIDWFYRGYDYWGQGTQVTVSS”, for which the “polyreactivity (PSR sort gate)” value is “high polyreactivity”.

Consider “QVHLVESGGGLVQAGGSLRLSCAASGSTFDVYAMGWYRQAPRKERELVAVINTSGTRTYYADSVKGRFTISRDNAKNSVYLLMNSLKPEDTAVSYCNAGGNLEMIYWGQGTQVTVSS”, for which the “polyreactivity (PSR sort gate)” value is given as “low polyreactivity”.

Regarding “QVHLVESGGGLVQAGGSLRLSCAASGSTFETNAMGWYRQSPGKERELVAAIRWSTGNTYYADSVKGRFTISRDNAKNTVYLQMNSLKPEDTAVYYCAAYKGKHYKEGYWGQGTQVTVSS”, the “polyreactivity (PSR sort gate)” value is listed as “low polyreactivity”.

For “QVHLVESGGGLVQAGGSLRLSCAASGSTFFQYAMGWYRQAPGKERELVAAISSRGGRTYYADSVKGRFTISRDNAKNTVYLQMNRLKPEDTAVYYCATNRSVSYPYDGYYYWGQGTQVTVSS”, the “polyreactivity (PSR sort gate)” value is given as “high polyreactivity”.

As for “QVHLVESGGGLVQAGGSLRLSCAASGSTFKRNAMGWYRQAPGKERELVAAITQRGGRTYYADSVKGRFTISRDNAKNTVYLQMNSLKPEDTAVYYCAVDSQTANDYDYWGQGTEVTVSS”, the “polyreactivity (PSR sort gate)” value is reported as “low polyreactivity”.

“QVHLVESGGGLVQAGGSLRLSCAASGSTFLYYAMGWYRQAPGKERELVAAISSSGGRTYYADSVKGRFTISRDNAKNTVYLQMNSLKPEDTAVYYCAADGRRTSKAGYYYWGQGTQVTVSS”: the “polyreactivity (PSR sort gate)” value is “high polyreactivity”.

Regarding “QVHLVESGGGLVQAGGSLRLSCAASGSTFQWYAMGWYIQAPGKERELVATISYTGGSRTYYADSVKGRFTNSRDNAKNTVYLQMNSLKPEDTAVYDCAAESNQLFYFRRFDFWGQGTQVTVSS”, the “polyreactivity (PSR sort gate)” value is on record as “low polyreactivity”.

In the case of “QVHLVESGGGLVQAGGSLRLSCAASGSTFRHYAMGWYRQAPGKERELVAAISSRGGRTYYADSVKGRFTISRDNAKNTGYLQMNSQKPEDTAVYYCAADRFRLYVGGWWYDYWRQGTQVTVSS”, the “polyreactivity (PSR sort gate)” value is on record as “high polyreactivity”.

As for “QVHLVESGGGLVQAGGSLRLSCAASGSTFSIYTMGWYRQAPGKERELVAVITKSGGSTYYADSLKGRFTISRDNAKNTVYLQMISLKPEDIAVYYCAARRRGARHDYWGQGTQVTVSS”, the “polyreactivity (PSR sort gate)” value is recorded as “high polyreactivity”.

In the case of “QVHLVESGGGLVQAGGSLRLSCAASGSTFSSYAMGWYRQAPGKERELVAAINWSGTRTYYADSVKGRFTISRDNAKNTVYLQMNSLKPEDTAVYYCAAPGDGETADYDYWGQGTQVTVSS”, the “polyreactivity (PSR sort gate)” value is given as “low polyreactivity”.

“QVHLVESGGGLVQAGGSLRLSCAASGSTFTYYAMGWYRQAPGKERELVAAITSGGSTNYADSVKGRFTISRDNAKNTVYLQMNSLKPEDTAVYYCAGDGQNFQFYVVSEEYDYWGQGTQVTVSS”: the “polyreactivity (PSR sort gate)” value is recorded as “low polyreactivity”.

Turning to “QVHLVESGGGLVQAGGSLRLSCAASGSTFYRYAMGWYRQAPGKERELVAAITTSGDSTYYADSVKGRFTISRDNAKNTVYLQMNSLKPEDTAIYDCNKVGRYSSYYWGQGSQVTVSS”, the “polyreactivity (PSR sort gate)” value was “high polyreactivity”.

With “QVHLVESGGGLVQAGGSLRLSCAASGSTFYVNAMGWDRQAPGKERELVAAIRSSGRTNYADSVKGRFTISRDNAKNTVYLQMNSLKPEDTAVYYCAAEVPHWPYYGRLHDRDYWGQGTQVTVSS”, the “polyreactivity (PSR sort gate)” value was “low polyreactivity”.

Take “QVHLVESGGGLVQAGGSLRLSCAASGSTFYYAMGLYRKAPGKERELVASITFSTGSTYYADSVKGRFTISRDNAKNTVLLQMNSLKPEDTAVYYCATGVDTFSLSVEHDSWGQGTQVTVSS”: the “polyreactivity (PSR sort gate)” value is on record as “low polyreactivity”.

Turning to “QVHLVESGGGLVQAGGSLRLSCAASGSTIDYKAMGWYRQAPGKERELVAAITTIGGSTYYADSVKGRFTISRDNAKNTVYLQMNSLKPEDTAVYYCAADLRVWGRSGYDYWGQGTQVTVSS”, the “polyreactivity (PSR sort gate)” value is given as “low polyreactivity”.

With “QVHLVESGGGLVQAGGSLRLSCAASGSTSYVYAMGWYRKAPGKERELVAAISGSGGRTYYADSVKGRFTISRDNAKNTVYLQMNSLKPEDTAVYYCNALPRPSYPFDYWGQGTQVTVSS”, the “polyreactivity (PSR sort gate)” value is reported as “high polyreactivity”.

With “QVHLVESGGGLVQAGGSLRLSCAASGTIFGINAMGWYRQAPGKERELVAGITSGGSTYYADSLKGRFTISRDNAKNTVDLQMNILKPEDTAVYYCAAVANQWYTEREYWGQGTQVTVSS”, the “polyreactivity (PSR sort gate)” value is listed as “low polyreactivity”.

Take “QVHLVESGGGLVQAGGSLRLSCAASGYIFHVYAMGWYRQAPGKERELVAAITSSGGSKYYADSVKGRFTISRDNAKNTVYLQMNCLKPEDTAVYYCAARTRYISGRQTGYDYWGQGTQVTVSS”: the “polyreactivity (PSR sort gate)” value is “high polyreactivity”.

As for “QVHLVESGGGLVQAGGSLRLSCAASGYIFTGYAMGCYRQAPGKERELVATINTDGDSTYYADSVKGRFTISRDNAKNTVYLQMNSLKPEDTAVYYCNKRLTQAYDDQVGYDYWGQGTQVTVSS”, the “polyreactivity (PSR sort gate)” value is reported as “low polyreactivity”.

On to “QVHLVESGGGLVQAGGSLRLSCAASGYRNAMGWYRQAPGKERELVAAISSGGSTYADSVKGRFTISRDNAKNTVYLQMNSLKPEDTAVYYCAAGPVPTYDYGNFDYWGQGTQVTVSS”, for which the “polyreactivity (PSR sort gate)” value is given as “low polyreactivity”.

Regarding “QVHLVESGGGLVQAGGSLRLSCAASGYTFDSYAMGWYRQAPGKERELVAAISSGGRTKYADSVKGRFTISRDNAKNTVYLQMNSLKPEDTAFYYCAARRTFGVGILVGYWGQGTQVTVSS”, the “polyreactivity (PSR sort gate)” value is recorded as “high polyreactivity”.

As to “QVHLVESGGGLVQAGGSLRLSCAASGYTFVVYAMGWYIQAPGKERELVAAINKSGGSTYYADSVKGRFTISRDHAKNSVYLQMNSLKAEDTAFYYCAADLLKLRTDYYWGQGTQVTVSS”, the “polyreactivity (PSR sort gate)” value is reported as “low polyreactivity”.

“QVHLVESGGGLVQAGGSLRLSCAASVRIISAYAMGWYRQAPGKERELVAAINGSGGSTYYADSVKGRFTISRDNAKNTVYLQMNSLKPEDTAVYYCAAKIDYPDARYFPYRYYYWGQGTQVTVSS”: the “polyreactivity (PSR sort gate)” value is given as “high polyreactivity”.

“QVHLVESGGGLVQAGGSLRLSCAATGLIFPRYAMGWSRQAPGKEREMVAAITRGGSTYYADSVKGRFTISRDNAKNTVYLQMYSLKPEDTAVYYCNADYSPSTWYLYYSLYYYWGQGTQVTVSS”: the “polyreactivity (PSR sort gate)” value is given as “low polyreactivity”.

Consider “QVHLVESGGGLVQAGGSLRLSCAATGSTFPYNTMGWYRQAPGKERELVAAISSSGGSTYYADSVKGRFTISRDNAKNSVYLQRKSLKPEENAVYYCKAQIVASYQARRYYYWGQGTQVTVSS”, for which the “polyreactivity (PSR sort gate)” value is given as “low polyreactivity”.

With “QVHLVESGGGLVQAGGSLRLSCAAYGRIFKNYAMGWYRQAPGKESELVAAISWSGGRTYYADSVKGRFTISRDNAKNTVYLQMNSLKPEDTAVYYCATAARRGTSSIEPFGYGSWGQGTQVTVSS”, the “polyreactivity (PSR sort gate)” value is “high polyreactivity”.

As for “QVHLVESGGGLVQAGGSLRLSCAAYGSIFHGNAMGWYRQAPGKERELVAAISWSGDSTYYADSVKGRFTISRDNAKNTVYLHMNSLKPEDTAVYSCNAEWTRDFYEYDYWGQGTQVTVSS”, the “polyreactivity (PSR sort gate)” value is listed as “low polyreactivity”.

Regarding “QVHLVESGGGLVQAGGSLRLSCAAYGSIFRVYAMGWYRPAPGKERELVAAIDSGGSTYYADSVKGRFTISRDNAKNTVYLQMNSLKPEDTAVYYCNADRRPGGDYWGQGTQVTVSS”, the “polyreactivity (PSR sort gate)” value is recorded as “low polyreactivity”.

For the sequence “QVHLVESGGGLVQAGGSLRLSCAPSGSTFIRNAILWYRQAPGKDRELVAPISRSGSSTYYADSVKGRFTISRDNAKNTVYLQMNSLKPEDTAVYYCAAETDSRKARVLYDSWGQGTQVTVSS”, the “polyreactivity (PSR sort gate)” value is “high polyreactivity”.

As for “QVHLVESGGGLVQAGGSLRLSCASYGSTLELNAMGWYRQAPGKERELVAAITSSGGRTYYADSVKGRFTISRDNAKNTVYLQMKSLKPEDTAVYYCAAEPGQQRVVDRYDYWGQGTQVTVSS”, the “polyreactivity (PSR sort gate)” value is on record as “low polyreactivity”.

Turning to “QVHLVESGGGLVQAGGSLRLSCDASGRIFKYNAMGWYRQAPGKERELVAAISSGGSTNYADSVKGRFTISRDNAKNTVYLQMNSLKPEDTAVYDCAADGTRVSSFHYLVWLCYWGQGTQVTVSS”, the “polyreactivity (PSR sort gate)” value is on record as “low polyreactivity”.

On to “QVHLVESGGGLVQAGGSLRLSCDASGSIIDGYGMGWYRQAPGKERELVASITWNDGSTYYADSVKGRFTISRDNAKNTVYLQMNSLKPEDTAVYYCAADQWGYEYDYWGQGTQVTVSS”, for which the “polyreactivity (PSR sort gate)” value was “low polyreactivity”.

For the sequence “QVHLVESGGGLVQAGGSLRLSCHASGIIFKTYAMGWYRQPPGKERELVAAISSGGTTYYADSVKGRFTISRDNAKNTVYLQMNSLKPEDTAVYYCAARGYRSGGGYNYWGQGTQVTVSS”, the “polyreactivity (PSR sort gate)” value is “high polyreactivity”.

For “QVHLVESGGGLVQAGGSLRLSCPASGRTFYRKAMGWDRQAPGKERELVAAITSGGGTTYADSVKGRFTISRDNAKNTVYLQMNSLKPEDTAVYYCAAGRVRRRVLYNYWGQGTQVTVSS”, the “polyreactivity (PSR sort gate)” value is “high polyreactivity”.

Turning to “QVHLVESGGGLVQAGGSLRLSCSASGITFLTYTMGWYRQEPGKERELVASIRYSTGSTYYADSVKGRFTISRDNAKNTVYLQMNSLKPEDTAVYYCNDYSSYIKYDYWGQGTQVTVTS”, the “polyreactivity (PSR sort gate)” value was “high polyreactivity”.

For “QVHLVESGGGLVQAGGSLRLSCSASGITFTRYTMGWYRQARGKERELVASIRRSGSTNYADSVKGRFTISRDNAKNTVYLQMNSLKPEDTAVYYCAAVQTGRYYYWGQGTQVTVSS”, the “polyreactivity (PSR sort gate)” value was “high polyreactivity”.

Consider “QVHLVESGGGLVQAGGSLRLSCSASGRIFDNYVMGWYRQAPGKERELVAAISSGGGTYYADSVKGRFTISRDNAKNTVFLQMNSLKPEDTAVYYCAKRRVYDRSFGRYDYWGQGTQVTVSS”, for which the “polyreactivity (PSR sort gate)” value is on record as “low polyreactivity”.

Turning to “QVHLVESGGGLVQAGGSLRLSFAASGFTFGQNAMGWYRQAPGKEREFVATITASGSTYYADSVKGRFTISRDNAKNTVYLQMYSLKPEDTAVYYCATRYAGEYYWDYDYWGQGTQVTVSS”, the “polyreactivity (PSR sort gate)” value was “high polyreactivity”.

As for “QVHLVESGGGLVQAGGSLRLSFAASGRIFARYALGWYRPAPGKERELVAAITSGGSTHYADSVKGRFTIARENAKNTVYLQMNSLKPEDSAVYYCAAVYRGQRYDYWGQGTQVTVSS”, the “polyreactivity (PSR sort gate)” value is recorded as “high polyreactivity”.

Turning to “QVHLVESGGGLVQAGGSLRLSFAASGRIFDLYTMGWYRQAPGKERELVAAIRWSDGSTYYADSVKGRFTISRDNAKNTVYLQMNSLKPEDTAVYYCAADTRTSYYNDDYDYWGQGTQVTVSS”, the “polyreactivity (PSR sort gate)” value was “low polyreactivity”.
